# Tests used:
# [1] = biological target: equine collagen (Horm), a mixture of 95 % collagen type I and 5 % type III (equine); test: VWF collagen binding assay
# [2] = biological target: platelet glycoprotein Ib alpha (UniProt P07359); test: VWF:GPIb binding assay
ratio of VWF:CB to VWF:Ag in medium (in relation to rwtVWF) [1],VWF:GPIbα binding (in relation to rwtVWF) [2],ratio of VWF:GPIbα binding to VWF:Ag in medium (in relation to rwtVWF) [2],ratio of VWF:GPIbα binding to VWF:Ag [2],Substance
1,1,1,–,recombinant wild type von Willebrand factor (from UniProt P04275-1 764-2813) (natural protein)
–,–,–,1.06,plasma von Willebrand factor of a normal person (from UniProt P04275-1 764-2813) (natural protein)

# From PMC5035592
